Experimental data: US20240287169A1 (AULOS BIOSCIENCE, published 2024)
Blank lines part the entries; values can stand above or below the binder they belong to.

Legend:
Human IL-2 [1] = biological target: T1, Human IL-2 (human, UniProt P60568 21-153); test: SPR, multi-cycle, antibody captured, hIL-2 analyte
T1 construct: Soluble analyte in the SPR experiments; also called hIL-2; recombinant human IL-2
Source text: (§1) The SPR analysis was done on Biacore […] (GE healthcare, USA) on CM5 chips (cat:br10005-30, GE healthcare, USA). The chip was crosslinked with primary capture Ab against human IgG (Cat: br-1008-39, GE healthcare, USA) or primary capture antibody against mouse IgG (Cat: BR-1008-38, GE healthcare, USA) to a target of 8000RU. After cross-linking of the primary Ab, the mouse and human tested antibodies were immobilized on the primary Ab to a target of approximately additional 500RU. […] At the end of each cycle the analyte and tested antibody were stripped from the chip using 3M MgCl₂ and new tested Ab was loaded on the chip as described above. When indicated, instead of stripping the antibodies, kinetics was determined by injecting series of analyte concentrations in one cycle by the Single-cycle kinetics method. Binding kinetics were determined by the 1:1 Binding model using the Biacore T200 evaluation software.

cynomolgus monkey IL-2 = biological target: T2, cynomolgus monkey IL-2 (cynomolgus monkey, UniProt Q29615 21-154); test: SPR, multi-cycle, antibody captured, cynomolgus IL-2 analyte
T2 construct: also called cIL-2
Source text: as §1

Human IL-2 [2] = biological target: T1, Human IL-2; test: SPR, single-cycle, antibody captured, hIL-2 analyte
Source text: as §1

Human IL-2 [3] = biological target: T1, Human IL-2; test: SPR, antibody captured on anti-human IgG CM5 chip, human IL-2 as analyte, single-cycle, 1:1 binding model
Source text: as §1

Human IL-2 [4] = biological target: T1, Human IL-2; test: SPR, antibody captured on anti-human IgG CM5 chip, human IL-2 as analyte, multi-cycle, 1:1 binding model
Source text: as §1

Human IL-2 [5] = biological target: T1, Human IL-2; test: SPR Biacore T200, antibody captured, hIL-2 analyte
Source text: as §1

Mouse IL-2 [6] = biological target: T3, Mouse IL-2 (mouse, UniProt P04351 21-169); test: SPR Biacore T200, antibody captured, mIL-2 analyte
T3 construct: Soluble analyte in SPR; also called mIL-2
T3 sequence (looked up): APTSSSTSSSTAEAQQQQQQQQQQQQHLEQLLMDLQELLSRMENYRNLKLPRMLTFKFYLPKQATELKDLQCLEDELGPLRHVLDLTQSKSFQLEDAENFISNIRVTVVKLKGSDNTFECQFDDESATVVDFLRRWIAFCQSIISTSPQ
Source text: as §1

Mouse IL-2 [7] = biological target: T3, Mouse IL-2; test: SPR Biacore, antibody captured, mIL-2 analyte
Source text: as §1

[8] = biological target: T4, Non-alpha-IL-2 (naIL-2, hIL-2/hCD25 conjugate) (human, UniProt P01589 22-240; P60568 21-153); test: SPR, biotinylated hCD25 on the chip, naIL-2 injected
T4 construct: Expressed in Expi293 cells; also called IL-2-CD25 conjugate; hIL-2/CD25 conjugated cytokine

T2 sequence (Q29615 21-154 limits assumed): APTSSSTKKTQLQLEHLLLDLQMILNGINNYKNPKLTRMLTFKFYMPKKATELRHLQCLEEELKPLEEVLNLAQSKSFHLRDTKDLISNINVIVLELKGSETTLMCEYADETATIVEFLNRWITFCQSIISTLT
T1 sequence (P60568 21-153 limits assumed): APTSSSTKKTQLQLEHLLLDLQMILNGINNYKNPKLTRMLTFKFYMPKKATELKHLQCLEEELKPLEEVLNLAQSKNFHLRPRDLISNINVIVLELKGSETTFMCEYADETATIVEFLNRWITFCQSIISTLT

Kd (Human IL-2 [1]): 0.0515 nM
koff (Human IL-2 [1]): 0.000785 s⁻¹
kon (Human IL-2 [1]): 1.52e+07 M⁻¹ s⁻¹
B1: BDG17.066 (antibody, human IgG1, kappa, L234A L235A, V domains shown)
VH: QVQLVQSGAEVKKPGSSVKVSCKASGYSITDSLIHWVRQAPGQGLEWMGWIDPEDGEINYAQKFQGRVTLTADTSTSTAYMELSSLRSEDTAVYYCARSLDSYPIDPFAYWGQGTLVTVSS
VL: DIVMTQSPDSLAVSLGERATINCKSSQSLLRNGNQQNYLAWYQQKPGQPPKLLIYYASTGQSGVPDRFSGSGSGTDFTLTISSLQAEDVAVYYCQQHYVTPPTFGAGTKVEIKR
notes: Humanized IgG1 with the LALA mutation (L234A, L235A)

Kd (Human IL-2 [1]): 0.0202 nM
koff (Human IL-2 [1]): 0.0002 s⁻¹
kon (Human IL-2 [1]): 1.41e+07 M⁻¹ s⁻¹
koff (Human IL-2 [4]): 0.0002 s⁻¹
B4: BDG17.038 (antibody, V domains shown)
VH: QVQLVQSGAEVKKPGSSVKVSCKASGYSITDSLIHWVRQAPGQGLEWMGWIDPEDGEINYAQKFQGRVTLTADTSTSTAYMELSSLRSEDTAVYYCARSLDSYPIDPFAYWGQGTLVTVSS
VL: DIVMTQSPDSLAVSLGERATINCKSSQSLLRNGNQQNYLAWYQQKPGQPPKLLIYYASTGQSGVPDRFSGSGSGTDFTLTISSLQAEDVAVYYCQQHYVTPPTFGAGTKVEIK
notes: Humanized IgG1

Kd (Human IL-2 [1]): 0.0482 nM
koff (Human IL-2 [1]): 0.000222 s⁻¹
Kd (Human IL-2 [4]): 0.0478 nM
koff (Human IL-2 [4]): 0.000266 s⁻¹
kon (Human IL-2 [4]): 3.39e+07 M⁻¹ s⁻¹
B6: BDG17.043 (antibody, V domains shown)
VH: QVQLVQSGAEVKKPGSSVKVSCKASGYSITDYLIHWVRQAPGQGLEWMGWIDPEDGVTAYAQKFQGRVTLTADTSTSTAYMELSSLRSEDTAVYYCARSLDYDPIYPFAYWGQGTLVTVSS
VL: DIVMTQSPDSLAVSLGERATINCKSSQSLLRNGNQKNYLAWYQQKPGQPPKLLIYYASTGQSGVPDRFSGSGSGTDFTLTISSLQAEDVAVYYCQQHYVTPPTFGAGTKVEIK
notes: Humanized IgG1; also called BDG017.043

Kd (Human IL-2 [5]): 0.0818 nM
koff (Human IL-2 [5]): 0.00107 s⁻¹
kon (Human IL-2 [5]): 1.31e+07 M⁻¹ s⁻¹
Kd (Mouse IL-2 [6]): 2460 nM
koff (Mouse IL-2 [6]): 0.0979 s⁻¹
kon (Mouse IL-2 [6]): 39800 M⁻¹ s⁻¹
B7: BDG17.023 IgG (antibody, V domains shown)
VH: EIQLQQSGPELRRPGSSVKLSCKASGYNITDYLIHWVRHRPEHGLEWIGWIDPEDGETRYAQKFQSKATLTADTSSNAAYMQLSSLTPEDTATYFCARQLDSTYIYPFAYWGQGTLVTVSS
VL: DIVMTQSPFSLAVSEGEMVTINCKSSQSLLRSGNQKNYLAWYQQKPGQSPKLLIYYASTGQSGVPDRFIGSGSGTDFTLTISDVQAEDLADYYCLQHYITPPTFGAGTKLELK
notes: Human chimeric IgG1 with rat Fv

binding result [8]: no binding (tested: 1 uM)
B9: biotinylated human CD25 (receptor, UniProt P01589 22-213, looked up)
chain: ELCDDDPPEIPHATFKAMAYKEGTMLNCECKRGFRRIKSGSLYMLCTGNSSHSSWDNQCQCTSSATRNTTKQVTPQPEEQKERKTTEMQSPMQPVDQASLPGHCREPPPWENEATERIYHFVVGQMVYYQCVQGYRALHRGPAESVCKMTHGKTRWTQPQLICTGEMETSQFPGEEKPQASPEGRPESETSC
modifications: biotinylated
notes: Captured on a streptavidin-coated chip; also called biotinylated hCD25

Further lines, the binder ahead of its results:

B2: BDG17.067 (antibody, human IgG1, kappa, L234A L235A, V domains shown)
VH: QVQLVQSGAEVKKPGSSVKVSCKASGYSITDYLIHWVRQAPGQGLEWMGWIDPEDGVTAYAQKFQGRVTLTADTSTSTAYMELSSLRSEDTAVYYCARSLDYDPIYPFAYWGQGTLVTVSS
VL: DIVMTQSPDSLAVSLGERATINCKSSQSLLRNGNQKNYLAWYQQKPGQPPKLLIYYASTGQSGVPDRFSGSGSGTDFTLTISSLQAEDVAVYYCQQHYVTPPTFGAGTKVEIKR
notes: Humanized IgG1 with the LALA mutation; also called BDG17.0067
Kd (Human IL-2 [1]): 0.011 nM
koff (Human IL-2 [1]): 0.000372 s⁻¹
kon (Human IL-2 [1]): 3.37e+07 M⁻¹ s⁻¹
Kd (cynomolgus monkey IL-2): 0.014 nM
koff (cynomolgus monkey IL-2): 0.000398 s⁻¹
kon (cynomolgus monkey IL-2): 2.83e+07 M⁻¹ s⁻¹

B3: BDG17.053 (antibody, V domains shown)
VH: QVQLVQSGAEVKKPGSSVKVSCKASGYSITDYLIHWVRQAPGQGLEWMGWIDPEDGETNYAQKFQGRVTLTADTSTSTAYMELSSLRSEDTAVYYCARSLDYDPIYPFAYWGQGTLVTVSS
VL: DIVMTQSPDSLAVSLGERATINCKSSQSLLRNGNQKNYLAWYQQKPGQPPKLLIYYASTGQSGVPDRFSGSGSGTDFTLTISSLQAEDVAVYYCQQHYITPPTFGAGTKVEIK
notes: Humanized IgG1
Kd (Human IL-2 [2]): 0.0643 nM
koff (Human IL-2 [2]): 0.00254 s⁻¹
kon (Human IL-2 [2]): 3.96e+07 M⁻¹ s⁻¹
kon (Human IL-2 [3]): 3.39e+07 M⁻¹ s⁻¹

B5: BDG17.054 (antibody, V domains shown)
VH: QVQLVQSGAEVKKPGSSVKVSCKASGYSITDDLIHWVRQAPGQGLEWMGWIDPEDGETNYAQKFQGRVTLTADTSTSTAYMELSSLRSEDTAVYYCARSLDSTWIYPFAYWGQGTLVTVSS
VL: DIVMTQSPDSLAVSLGERATINCKSSQSLLRRGNQKNHLAWYQQKPGQPPKLLIYDASTGQSGVPDRFSGSGSGTDFTLTISSLQAEDVAVYYCLQSYITPPTFGAGTKVEIK
notes: Humanized IgG1 without the LALA mutation
Kd (Human IL-2 [2]): 0.0127 nM
koff (Human IL-2 [2]): 0.0007 s⁻¹
kon (Human IL-2 [2]): 5.5e+07 M⁻¹ s⁻¹

B8: BDG JES6.1RMC (17.006) (antibody, V domains shown)
VH: EIQLQQSGPELRRPGSSVKLSCKASGYNITDYLIHWVRHRPEHGLEWIGWIDPEDGETRYAQKFQSKATLTADTSSNAAYMQLSSLTPEDTATYFCARSLDSTYIYPFAYWGQGTLVTVSS
VL: DIVMTQSPFSLAVSEGEMVTINCKSSQSLLSSGNQKNYLAWYQQKPGQSPKLLIYYASTGQSGVPDRFIGSGSGTDFTLTISDVQAEDLADYYCLQHYISPPTFGAGTKLELK
notes: Rat Fv with a mouse IgG2a constant region
Kd (Mouse IL-2 [7]): 0.13 nM
koff (Mouse IL-2 [7]): 6.3e-05 s⁻¹
kon (Mouse IL-2 [7]): 480000 M⁻¹ s⁻¹
